From publication doi:10.1101/2020.12.24.423824 (bioRxiv, 2020)

B1: RILP-GFP10 (natural protein, UniProt Q96NA2 1-401, looked up)
chain: MEPRRAAPGVPGWGSREAAGSASAAELVYHLAGALGTELQDLARRFGPEAAAGLVPLVVRALELLEQAAVGPAPDSLQVSAQPAEQELRRLREENERLRRELRAGPQEERALLRQLKEVTDRQRDELRAHNRDLRQRGQETEALQEQLQRLLLVNAELRHKLAAMQTQLRAAQDRERERQQPGEAATPQAKERARGQAGRPGHQHGQEPEWATAGAGAPGNPEDPAEAAQQLGRPSEAGQCRFSREEFEQILQERNELKAKVFLLKEELAYFQRELLTDHRVPGLLLEAMKVAVRKQRKKIKAKMLGTPEEAESSEDEAGPWILLSDDKGDHPPPPESKIQSFFGLWYRGKAESSEDETSSPAPSKLGGEEEAQPQSPAPDPPCSALHEHLCLGASAAPEA
B2: GFP10-CLN3 (natural protein, UniProt Q13286 1-438, looked up)
chain: MGGCAGSRRRFSDSEGEETVPEPRLPLLDHQGAHWKNAVGFWLLGLCNNFSYVVMLSAAHDILSHKRTSGNQSHVDPGPTPIPHNSSSRFDCNSVSTAAVLLADILPTLVIKLLAPLGLHLLPYSPRVLVSGICAAGSFVLVAFSHSVGTSLCGVVFASISSGLGEVTFLSLTAFYPRAVISWWSSGTGGAGLLGALSYLGLTQAGLSPQQTLLSMLGIPALLLASYFLLLTSPEAQDPGGEEEAESAARQPLIRTEAPESKPGSSSSLSLRERWTVFKGLLWYIVPLVVVYFAEYFINQGLFELLFFWNTSLSHAQQYRWYQMLYQAGVFASRSSLRCCRIRFTWALALLQCLNLVFLLADVWFGFLPSIYLVFLIILYEGLLGGAAYVNTFHNIALETSDEHREFAMAATCISDTLGISLSGLLALPLHDFLCQLS

Molecular target: RlucII-Rab7A (UniProt P51149 1-207)
Test: FRET or BRET

Chain of RlucII-Rab7A (P51149 whole entry): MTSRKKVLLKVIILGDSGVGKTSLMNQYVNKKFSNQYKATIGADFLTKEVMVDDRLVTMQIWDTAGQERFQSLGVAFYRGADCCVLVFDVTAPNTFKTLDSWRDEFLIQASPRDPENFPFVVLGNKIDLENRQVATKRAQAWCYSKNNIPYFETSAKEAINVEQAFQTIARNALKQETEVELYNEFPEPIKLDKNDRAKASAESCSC

Row | Binder | fold increase of BRET50 in CLN5KO cells against wild-type HeLa cells [fold]
1 | B1 | 3
2 | B2 | 2.85
